Data on eight molecules can be found in patent US20050147610A1 (AbbVie / Abbott, published 2005).

Several values for one entry are separate records, joined by “and”; a condition that tells them apart may be missing. Equal entries are not always repeated. Where two headings read alike, the source gives them in different places.

Test [1] concerns the target T1, NEM-huIL-18 (recombinant mature human IL-18 treated with N-ethyl maleiamide) (human, UniProt Q14116 37-193, cysteines protected with N-ethyl maleiamide (NEM)). The test can be described thus: cell-based or functional assay.
Test [2] has as its target T1, NEM-huIL-18 (recombinant mature human …). The test can be described thus: cell-based or functional assay. The source holds these as a separate data set.
The target in test [3] is T2, natural human IL-18 (endogenous, human whole blood) (human, UniProt Q14116 37-193). Briefly: cell-based or functional assay.
Test [4] addresses T1, NEM-huIL-18 (recombinant mature human …). Briefly: Biacore, NEM-cys protected rhuIL-18. A general note: Surface plasmon resonance follows binding to a sensor surface in real time, without labels.
Test [5] addresses T3, 125I labeled rhu-IL-18 (human, UniProt Q14116 37-193, NEM-treated cysteines; 125I label on lysine residues). The test can be described thus: RBA: inhibition of 125I-rhu-IL-18 binding to IL-18Rαβ on KG-1 cells.
Test [6] deals with recombinant mature human IL-18 (preparation not specified) (human, UniProt Q14116 37-193). Briefly: cell-based or functional assay.
The target in test [7] is T2, natural human IL-18 (endogenous, human …). Briefly: cell-based or functional assay. The source holds these as a separate data set.
In test [8] the target is T3, 125I labeled rhu-IL-18. The test can be described thus: RBA: inhibition of 125I-rhu-IL-18 binding to IL-18Rαβ on KG-1 cells. This is another data set of the same source.

A word on the Kd: it is a measure of binding affinity in units of concentration. What is called IC50 is the midpoint of a concentration-inhibition curve. Read a high IC50 as a need for much substance.

B1: 435 (antibody, V domains shown)
VH: ZLQLQESGPGLVKPSETLSLTCTVSGGSIDSRIYYWGWIRQPPGKGLEWIGSIYYRGSTYYNPSLKSRVTISVDTPKNQFSLKLNSVTAADTAVYYCAREDSSAWVFDYWGQGTLATVSS
VL: EIVLTQSPGTLSLSPGERATLSCRASQSVRNNYLNWYQQKPGQAPRLLIYGAFSRATGIPDRFSGSGSGTDFTLTISSLEPEDFVVYYCQQYGNSIDSFGQGTKLEINR
Regarding B1, in test [1], the “KG-1 Assays (IC50, M), NEM-rhuIL-18” value was 8e-10 M and 7e-10 M and 4e-10 M.

B2: 2.5.1 (antibody, V domains shown)
VH: ZVQLVQSGTEVKKPGESLKISCKGSGYTVTSYWIGWVRQMPGKGLEWMGFIYPGDSETRYSPTFQGQVTISADKSFNTAFLQWSSLKASDTAMYYCARVGSGWYPYTFDIWGQGTMVTVSS
VL: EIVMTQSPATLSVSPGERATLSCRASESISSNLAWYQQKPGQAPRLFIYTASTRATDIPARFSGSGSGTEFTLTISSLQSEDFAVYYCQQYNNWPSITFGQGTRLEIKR
On to B2, for which the “KG-1 Assays (IC50, M), NEM-rhuIL-18” value in test [1] was 3e-10 M and 4e-10 M.

B3: 351 (antibody, V domains shown)
VH: ZVQLVESGGGVVQPGRSLRLSCAASGFTFSHYGMHWVRQAPGKGLEWVAVISYDGRNKYYVDSVKGRFTISRDNSKNTLYLQMNSLRAEDTAVFYCAREKGGSGWPPFYYYYGMDVWGQGTTVTVSS
VL: DIVMTQTPLSLSVTPGQPASISCKSSQNLLYSDGETYLCWYLQKPGQPPQLLIYEVSNRFSGVPERFSGSGSGTDFTLKISRVEAEDVGIYYCMQNVQLPLTFGGGTRVEIKR
In the case of B3, the “KG-1 Assays (IC50, M), NEM-rhuIL-18” value in test [1] stood at 2e-10 M.

B4: 2.13.1 (antibody, V domains shown)
VH: ZVQLQESGPGLVTPSQTLSLTCTVSGGSISSGGHYWTWIRQHPGKGLEWIGYIYYSGSTYYNPSLKSRLTISVDTSKNQFSLKLSSVAAADTAVYYCARDRGGSGSYWDYWGQGTLVTVSS
VL: EIVLTQSPGTLSLSPGERATLSCRGSRSVSSGYLAWYQQKPGQAPRLLIYGVSIRATGIPDRFSGSGSGTDFTLTISRLEPEDFAVYYCQQYHGSPLTFGGGTKVEIKR
On to B4, for which, in test [1], the “KG-1 Assays (IC50, M), NEM-rhuIL-18” value was 2e-10 M and 1e-10 M and 7e-11 M.

B5: 2.13.1(E)wtg1 (antibody, V domains shown)
VH: EVQLQESGPGLVTPSQTLSLTCTVSGGSISSGGHYWTWIRQHPGKGLEWIGYIYYSGSTYYNPSLKSRLTISVDTSKNQFSLKLSSVAAADTAVYYCARDRGGSGSYWDYWGQGTLVTVSS
VL: EIVLTQSPGTLSLSPGERATLSCRGSRSVSSGYLAWYQQKPGQAPRLLIYGVSIRATGIPDRFSGSGSGTDFTLTISRLEPEDFAVYYCQQYHGSPLTFGGGTKVEIKR
Consider B5, for which the “KG-1 (IC50, nM)” value in test [2] stood at 0.12 nM. Moreover, the “WBA (IC50, nM)” value in test [3] amounted to 2 nM. Besides, in test [4], the Kd amounted to 0.2 nM. This molecule displayed an IC50 in the test with 125I labeled rhu-IL-18 [5] of 0.2 nM.

B6: 215 (antibody, V domains shown)
VH: ZVQLQESGPGLVKPSQTLSLTCTVSGGSINSGDYYWSWIRQHPGKGLEWIGHISYRGTTYYNPSLKSRVTISVDTSKNQFSLKLSSVTAADTAVYCCARDRGGGFFDLWGRGTLVTVSS
VL: EIVLTQSPGTLSLSPGERATLSCRASRSLSSGYLAWYQQKPGQAPRLLIYGASIRATGIPDRFSGSGSATDFTLTISRLEPEDFAVYYCQQYNYSPLTFGGGTRVEINR
As to B6, in test [1], the “KG-1 Assays (IC50, M), NEM-rhuIL-18” value is 1e-10 M and 3e-10 M.

B7: 413 (antibody, V domains shown)
VH: ZTQLQESGPGLVKPSETLSLTCTVSGGSISSRVYYWGWIRQPPGKGLEWIGSIYYSGSTYYSPSLKSRVTISVDTSKNQFSLKLSSVTAADTAIYYCAREDSSAWVFEHWGQGTLVTVSS
VL: EIVLTQSPDTLSLSPGERATLSCRASQILSRNYLAWYQQKPGQAPRLLIYGISIRATGIPDRFSGSGSGADFTLTINRLEPEDFAVYYCQHYDNSLCSFGQGTKLEVKR
For B7, the “KG-1 Assays (IC50, M), NEM-rhuIL-18” value in test [1] was 1e-09 M and 7e-10 M.

B8: IL-18BP-Fc (Fc fusion, UniProt O95998 31-194, looked up, not shown: a dimerising Fc or GST)
chain: TPVSQTTTAATASVRSTKDPCPSQPPVFPAAKQCPALEVTWPEVEVPLNGTLSLSCVACSRFPNFSILYWLGNGSFIEHLPGRLWEGSTSRERGSTGTQLCKALVLEQLTPALHSTNFSCVLVDPEQVVQRHVVLAQLWAGLRATLPPTQEALPSSHSSPQQQG
Consider B8, for which, in test [6], the “KG-1, Neutralization Potency in vitro (IC50, nM)” value stood at 0.03 nM. In test [7], the “WBA, Neutralization Potency in vitro (IC50, nM)” value was 5.7 nM. In the test with 125I labeled rhu-IL-18 [8], this molecule gave an IC50 of 1 nM.
